{"source": "paper doi:10.1101/2020.08.05.237479", "target": "MBP-NES^MVM", "assay": "MST", "data": [{"substance": "yCRM1a C152S/C539T (from UniProt P30822 1-1055) (receptor)", "values": [{"measurement": "fold weaker affinity than the C152/C539/C1022 triple mutant", "value": 5, "unit": "fold"}]}]}
